Target: Rho-kinase (ROCK), endogenous in Swiss 3T3 mouse fibroblasts (mouse)
Assay: cell-based or functional assay

Row | Binder | dose at which inhibition of LPA-induced stress fibers becomes significant
1 | RQIKIWFQNRRMKWKKGIVFSKDQFPEVYVPTVFE [P1-RhoA 23-40 fusion domain (Penetratin-1 fused through a glycine to human RhoA amino acids 23-40)] | 10 µM
2 | RQIKIWFQNRRMKWKKGPDTDVILMCFSIDSPDSL [P1-RhoA 75-92 fusion domain (Penetratin-1 fused through a glycine to human RhoA amino acids 75-92)] | 10 µM

— US20050209147A1 (Stanford University, published 2005)
